Reference: patent US20080108128A1, “Resonance Energy Transfer Assay System for Multi-Component Detection” (priority 2003, published 2008)

Molecular target: T1, CCR2 (Homo sapiens, UniProt P41597)
T1 construct: expressed in transfected cells; host or cells: Cos-7
Experiment: multiplex BRET assay of ligand induced CCR2:beta-arrestin-2 interaction in live Cos-7 cells
Assay type: cell-based
Conditions: Cos-7 cells co-expressing Rluc-Barr2, TRHR and CCR2 fusions (EYFP / t-dimer2(12)); MCP1 0.1 μM, 37° C. 10 min; coelenterazine h 5 μM
From the text: A construct for the expression of bovine beta-arrestin-2, N-terminally fused to Rluc (Rluc-Barr2) was constructed by amplification of the bovine beta-arrestin-2 coding sequence by PCR using the Barr2-fw and Barr2-re primers (template: construct containing bovine beta-arrestin2 in pcDNA3 (Invitrogen)). The 5′ and 3′ primers used contained EcoRV and NotI restriction enzyme sites, respectively. A second PCR product, containing the coding sequence for Rluc, was generated by amplifying the Rluc cDNA sequence with the primers Rluc-fw and Rluc-re using the plasmid pRL-CMV (Promega) as a template. This second PCR product contained HindIII and EcoRV restriction site at the 5′ and 3′ ends, respectively. Both PCR products were then cloned together into the HindIII/NotI sites of pcDNA3 (Invitrogen). […]
Ligands or combinations of ligands were added to the samples to a final concentration of 1 μM for TRH and 0.1 μM for MCP1, the natural ligands for the TRHR and CCR2 receptors, respectively. […] A Varian Eclipse fluorescence spectrometer (Varian) was used to record luminescence spectra in the range between 400-700 nm after coelenterazine h (Molecular Probes) was added to the samples to a final concentration of 5 μM.
The spectra were further analysed by integrating the peak areas of the EYFP and t-dimer2(12) emission peaks as described in Example 2. […]

T1 sequence (P41597 1-360 isoform P41597-2): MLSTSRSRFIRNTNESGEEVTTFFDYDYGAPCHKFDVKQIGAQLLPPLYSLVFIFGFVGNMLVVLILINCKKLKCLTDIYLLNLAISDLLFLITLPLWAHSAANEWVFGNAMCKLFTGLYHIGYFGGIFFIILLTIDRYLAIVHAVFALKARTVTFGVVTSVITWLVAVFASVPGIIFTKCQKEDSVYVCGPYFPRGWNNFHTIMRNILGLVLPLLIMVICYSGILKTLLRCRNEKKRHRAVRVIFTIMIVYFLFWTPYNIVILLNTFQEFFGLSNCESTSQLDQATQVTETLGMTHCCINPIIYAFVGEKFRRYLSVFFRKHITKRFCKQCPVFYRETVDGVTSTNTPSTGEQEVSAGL
T1 sequence (P32120 whole entry partner): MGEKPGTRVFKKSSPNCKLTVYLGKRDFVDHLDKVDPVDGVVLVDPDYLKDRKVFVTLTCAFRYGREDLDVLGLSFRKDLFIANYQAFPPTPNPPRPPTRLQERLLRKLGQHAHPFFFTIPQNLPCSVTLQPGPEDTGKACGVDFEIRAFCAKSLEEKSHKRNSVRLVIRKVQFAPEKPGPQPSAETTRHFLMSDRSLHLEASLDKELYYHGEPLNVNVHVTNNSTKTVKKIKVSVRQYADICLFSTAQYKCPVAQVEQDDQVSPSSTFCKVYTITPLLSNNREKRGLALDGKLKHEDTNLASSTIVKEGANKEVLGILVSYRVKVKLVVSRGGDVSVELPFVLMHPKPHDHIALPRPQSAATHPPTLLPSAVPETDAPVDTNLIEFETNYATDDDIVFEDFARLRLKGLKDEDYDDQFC

MCP1: natural ligand for the CCR2 receptor
ligand induced RET signal of CCR2 with Rluc-beta-arrestin-2: activated this receptor as was observed in an increase of the respective RET signal with beta-arrestin-2
